This note sets out measurements from PMC6201568.

Holding throughout (conditions): 285 mM Tris-HCl pH 8.0, 0.14 mg/mL BSA, 1.43 mM DTT, 5% glycerol, 0.04 mg/mL poly(dI-dC), 3.06 mM EDTA, 10 uL, 30 min at 25 C, 6% PAGE in TAE pH 8.2
In series [1] the test system is T1, PhaR-His6 (Bradyrhizobium diazoefficiens USDA110), ORF:9916d0df.
T1 sequence: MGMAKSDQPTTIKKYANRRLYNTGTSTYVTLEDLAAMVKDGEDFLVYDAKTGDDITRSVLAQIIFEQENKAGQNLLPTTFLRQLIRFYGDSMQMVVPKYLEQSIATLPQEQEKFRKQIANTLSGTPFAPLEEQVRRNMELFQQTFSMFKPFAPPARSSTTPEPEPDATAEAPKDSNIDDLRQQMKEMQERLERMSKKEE
The series can be described thus: EMSA. (In general: A gel shift assay detects complexes by their altered migration in electrophoresis.)

The test system is the same in series [2]. The experiment in a line: DNase I footprinting.
In series [3] the test system is PhaR-His6 (Bradyrhizobium diazoefficiens USDA110). The experiment in a line: EMSA.

“CACAAGATGATGCTCGATCACTACCAGCAGACCAAGAATCTCCTGGTCAGCTACAGCCCGAAGAAGCTCGGCTTCTTCTGATCGGAACAGGAGCGGGCGGCGCCGTTCTGGCGCCGCTCGTTCCGGTAAACGGGACCTGGCCCGCACGGCGTTAGATTTGTTGCCTGATCAGCGCCAAAGATTTTCCAATATTTCGATCACGTTGCAGTGCGGCATAATGAATGTCGTGTCATGCCGCCGCGGTGCTTTCCAAGGGTGTTTGACTTGGGTTAGAGAGGACGAAAGTTTTCTCTGACCCGG (double strand) [pdhA promoter]”: the binding result in series [1] is on record as “binds more weakly”.

“CTAAGGTGATGTTCTCAAACGGCTTTTGGCCGCTTGCGGAAGCTGAACACGTCCAGGGAATCAAGGTAGGGGTCCGCGGTTTCCAAAAGCTTAAGGAACCCTTGCGGGAAACCCCGGGAATCTCTTCGGTTTGGATCTAGTTTTTGTGCGACGCACAAGATTCTTGACTTTTTTGTGCGTTGCACTAATTGTGGGCAGAGTCAGGGAGCCGGGGCTTCCCGACGCGAGCCAGGGAAAAGGATTCCGAAATGTTCAAGGTTGAAGACTTTCAGAGCTACGGGAAAGAGCAGTTC (double strand) [FAM-phaP1 promoter (footprint)]”: in series [2], the binding entry is recorded as “binds”.

In series [3] (half of DNA in complex at highest concentration), phaR promoter had a K half of 110 nM.

ppc promoter: in series [3] (about half of DNA shifted only at highest concentration), the K half is 110 nM.

Regarding “CTCTCACTTGCAAGACGCTGAGAACGGGAACCCGGCGGCCGATGCCGCAGGGCGGGAAGAGTACGCAACGCAACAAAATAAGCATTTTCAAAGGGGTCACGCTACCGTTTTGTGCGCCACGGTTAATCGGGCAGCAAAAACGT (double strand) [phaR promoter]”, the K half in series [1] came out at 110 nM.
